Measured values published in PMC5514143, “A Drug Carrier for Sustained Zero-Order Release of Peptide Therapeutics” (Scientific Reports, 2017).

Key:
[1] = administered via injection; cited from earlier work
Source text: The key goal of a release system is to maintain the plasma drug concentration within the therapeutic window for a prolonged period of time. For zero-order release carriers, as the drug is released at constant rate, it will be possible to maintain the plasma drug concentration constant. This will avoid a plasma drug concentration which is too high to exert toxic effects, or too low to fail to exert therapeutic effects, and therefore lead to the best outcome. As expected, for rats with implanted PEG-sCT/TA films, the plasma concentration of PEG-sCT remains almost constant (Fig. 7A). When a 20 bi ...

[2] = Circular dichroism of PEG-sCT released from the film; assay type: physicochemical; conditions: CD 190-260 nm, room temperature, 0.1 cm path cell; release media
Experimental: UV-vis absorption spectra were recorded on a UV-1800 spectrophotometer (SHIMADZU, Japan). Fourier transform infrared (FTIR) spectra were measured on Bio-Rad FTS-6000 spectrometer. CD measurement was performed on a Biologic MOS-450 (Claix, France) at room temperature in a 0.1 cm path cell. The CD signals were recorded from 190 to 260 nm using a bandwidth of 4.0 nm and a scanning rate of 50 nm/min. SEM images were recorded on an FEI NanoSEM 430 Scanning Electron Microscope. Atomic force microscopy (AFM) images were acquired using a Benyuan CSPM5000s scanning probe microscope in tapping mode.

PEGylated salmon calcitonin [PEG-sCT]
half-life of PEG-sCT [1]: ~ 83 min
secondary structure of PEG-sCT released from the film (CD spectra vs native drug) [2]: remains unchanged
